Experiment [1] concerns the target T1, isolated G13D Ab1 peptide of SEQ ID NO:5 (human).
T1 peptide: CGAGDVGKSALTI-NH2
In words: ELISA, hybridoma supernatant on dilutions of the peptide, absorbance at 405 nm. (An ELISA detects its analyte on a solid surface through an enzyme-linked reagent.)

In experiment [2] the target is T2, "wild-type" (WT) peptide having the amino acid sequence CGAGGVGKSALTI (SEQ ID NO:160).
T2 peptide: CGAGGVGKSALTI
Description: further ELISA on WT peptide; weaker than on the mutant peptide.

In experiment [3] the target is T1, isolated G13D Ab1 peptide of SEQ ID NO:5. Description: further ELISA, mutant peptide compared with WT peptide.

No end group written: not given here.

B1: 4B8-1 (antibody, V domains shown)
VH: EVQLQQSGPERVKPGASVKMSCKASGYTFTDYSMHWVKQSHGKSLEWIGYINPNNGGASYNQKFKGKATLTVNKSSSTAYMELRSLTSEDSAVYYCARGDYYGGGYWGQGTTLTVSS
VL: ENVLTQSPAIMSASPGEKVTMTCSASSSVSYMHWYQQKSSTSPKLWIYDTSKVASGVPGRFSGSGSGNSYSLTINSMEAEDVATYYCFQGSGYPLTFGAGTKLELK
notes: Mouse monoclonal IgG from a hybridoma, tested as hybridoma supernatant
For the molecule B1, the binding result in experiment [1] and in experiment [2] was “binds” each time.

B2: 7D11-1 (antibody, V domains shown)
VH: QVQLQQPGAEFVKPGASVKLSCKASGYTFTRYWMHWVKQRPGRGLEWIGRIDPNSGGTTFNEKFKSKATLTVDKPSSTAYMQLSSLTSEDSAVYYCAREVGGYWGQGTTLTVSS
VL: ENVLTQSPAIMSASPGEKVTMTCSAGSSVDYMHWYQQKSSTSPKLWIYDTSKLASGVPGRFSGSGSGNSYSLTISSMEAEDVATYYCFQGSGYPLTFGAGTKLELR
notes: as for B1
In the case of B2, the binding result in experiment [1] and in experiment [2] was “binds” in each case.

B3: 11D6-1 (antibody, V domains shown)
VH: EVQLQQSGPELVKPGASVKMSCKTSGYTFTDYTMHWVKQSHGKSLEWIGYINPNNGGTYYNQRFKGKATLTVSRSSSTAYIELRSLTSDDSAVYYCARGDYYGGGYWGQGTTLRVSS
VL: ENVLTQSPAIMSASPGEKVTMTCSAGSSVSYMHWYQQKSSTSPKLWIYDTSKLASGVPGRFSGSGSGNSYSLTISSMEAEDVATYYCFQGSGYPLTFGDGTKLELK
notes: as for B1
Regarding B3, the binding result in experiment [3] and in experiment [2] was “binds” each time.

B4: 7G2-1 (antibody, V domains shown)
VH: QVTLKESGPGILQPSQTLSLTCSFSGFSLSTFGMGVGWIRQPSGKGLEWLAHIWWDDDKNYNPALKSRLTISKDTSKNQVFFKIANVDTADTATYYCVQLSTMGDGGYWGQGTLVTVSA
VL: NIVMTQSPKSMSMSVGERVTLSCKASENVGTYVSWYQQKPGQSPKLLIYGASNRYTGVPDRFTGSGSGTDFILTISSVQAEDLADYHCGQSYNYPFTFGSGTKLEIK
notes: as for B1
As for B4, the binding result in experiment [1] is “binds”.

(Values after US20230109318A1 (OBLIQUE THERAPEUTICS, published 2023).)
